Data: patent publication US20120141382, “APTAMER MODULATORS OF COMPLEMENT PROTEIN C3 AND BIOLOGICALLY ACTIVE PROTEOLYTIC PRODUCTS THEREOF” (Research Foundation of State University of New York at …, published 2012)

Legend:
[1] = target: T1, Complement C3 (Homo sapiens, UniProt P01024;P01024 P01024:23-667,P01024:672-1663); test: filter; 20 mM Tris-HCl pH 7.6, 150 mM NaCl, 10 mM MgCl2; does not compete with AptC3-1; conditions: tags: Calbiochem; label: 32P-CTP uniform
Protocol: (§1) Initially, RNA was heated to 65° C. for 10 minutes then switched to 37° C. for an additional 10 minutes before the addition of protein. The reactions were allowed to equilibrate for 15-20 minutes at ambient temperature before being subjected to Electrophoretic Mobility Shift Assay (“EMSA”) or filter binding.
(§2) For filter binding, the above-mentioned reaction mixture was immobilized on nitrocellulose (Millipore) using a manifold (Millipore) or a Bio-Dot SF (slot format) Microfiltration System (Bio-Rad, Hercules, Calif.). The nitrocellulose membrane was first soaked in binding buffer containing 20 mM Tris-Cl (pH 7.6), 150 mM NaCl, 10 mM MgCl₂. Nitrocellulose and two pieces of 3M Whatmann filter paper (3M) were assembled in the manifold as per company recommendations. Each well was washed with 1 ml of binding buffer. Samples were loaded in the wells and vacuum was applied to bind the complex, then each well was washed with 2 ml of binding buffer. The nitrocellulose membrane was then air dried and exposed to a phosphor screen (GE Healthcare) for 1 hour. The image was scanned using a Typhoon imager and ImageQuant software and the data was analyzed.

[2] = target: T2, Complement iC3b (Homo sapiens, UniProt P01024;P01024;P01024 P01024:23-667,P01024:749-1303,P01024:1321-1663); test: filter; no binding by filter assay and EMSA; conditions: tags: Calbiochem; label: 32P-CTP uniform
T2 sequence (P01024 23-667, chain 1 of 3): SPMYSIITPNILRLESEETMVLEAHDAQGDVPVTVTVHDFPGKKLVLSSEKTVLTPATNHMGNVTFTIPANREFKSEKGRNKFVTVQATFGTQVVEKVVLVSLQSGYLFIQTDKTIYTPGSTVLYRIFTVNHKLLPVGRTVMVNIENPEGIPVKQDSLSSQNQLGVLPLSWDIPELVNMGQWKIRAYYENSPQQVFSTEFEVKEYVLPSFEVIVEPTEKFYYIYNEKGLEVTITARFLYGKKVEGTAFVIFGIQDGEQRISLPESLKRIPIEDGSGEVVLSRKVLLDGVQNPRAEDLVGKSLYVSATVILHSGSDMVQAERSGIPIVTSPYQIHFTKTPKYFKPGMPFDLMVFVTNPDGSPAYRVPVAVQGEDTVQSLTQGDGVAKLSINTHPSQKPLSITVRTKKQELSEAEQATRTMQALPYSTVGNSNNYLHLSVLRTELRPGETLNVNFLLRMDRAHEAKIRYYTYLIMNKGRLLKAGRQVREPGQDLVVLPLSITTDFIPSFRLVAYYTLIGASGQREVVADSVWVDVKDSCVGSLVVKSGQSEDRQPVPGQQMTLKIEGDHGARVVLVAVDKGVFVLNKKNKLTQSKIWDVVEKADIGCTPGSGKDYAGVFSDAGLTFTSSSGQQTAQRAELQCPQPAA
T2 sequence (P01024 749-1303, chain 2 of 3): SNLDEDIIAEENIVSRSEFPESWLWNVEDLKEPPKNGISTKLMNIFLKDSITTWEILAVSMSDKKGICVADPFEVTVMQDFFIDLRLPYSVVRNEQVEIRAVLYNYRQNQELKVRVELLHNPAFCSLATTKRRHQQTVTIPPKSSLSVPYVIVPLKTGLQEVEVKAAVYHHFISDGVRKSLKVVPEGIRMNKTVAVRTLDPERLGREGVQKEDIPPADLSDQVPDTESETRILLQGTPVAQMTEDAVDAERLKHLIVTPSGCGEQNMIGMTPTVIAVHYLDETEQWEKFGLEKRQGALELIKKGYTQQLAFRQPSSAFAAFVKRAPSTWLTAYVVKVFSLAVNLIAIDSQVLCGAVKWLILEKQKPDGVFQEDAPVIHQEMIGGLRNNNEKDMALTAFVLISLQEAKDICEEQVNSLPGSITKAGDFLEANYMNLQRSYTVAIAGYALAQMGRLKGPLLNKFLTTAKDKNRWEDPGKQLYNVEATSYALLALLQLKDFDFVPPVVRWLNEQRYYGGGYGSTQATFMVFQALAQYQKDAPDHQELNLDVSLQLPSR
T2 sequence (P01024 1321-1663, chain 3 of 3): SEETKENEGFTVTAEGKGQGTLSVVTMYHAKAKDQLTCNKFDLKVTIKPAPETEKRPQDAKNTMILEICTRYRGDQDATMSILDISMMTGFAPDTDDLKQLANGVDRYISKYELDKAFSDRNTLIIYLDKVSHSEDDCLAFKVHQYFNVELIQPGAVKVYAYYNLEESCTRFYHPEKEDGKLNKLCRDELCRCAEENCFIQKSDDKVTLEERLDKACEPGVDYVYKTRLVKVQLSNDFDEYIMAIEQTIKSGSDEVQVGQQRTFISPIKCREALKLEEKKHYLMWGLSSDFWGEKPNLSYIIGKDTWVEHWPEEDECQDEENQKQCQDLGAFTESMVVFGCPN
Protocol: as §1, §2

[3] = target: T3, Complement C3b (Homo sapiens, UniProt P01024;P01024 P01024:23-667,P01024:749-1663); test: filter; 20 mM Tris-HCl pH 7.6, 150 mM NaCl, 10 mM MgCl2; conditions: tags: Quidel; label: 32P-CTP uniform
T3 sequence (P01024 23-667, chain 1 of 2): as the sequence (P01024 23-667, chain 1 of 3) above
T3 sequence (P01024 749-1663, chain 2 of 2): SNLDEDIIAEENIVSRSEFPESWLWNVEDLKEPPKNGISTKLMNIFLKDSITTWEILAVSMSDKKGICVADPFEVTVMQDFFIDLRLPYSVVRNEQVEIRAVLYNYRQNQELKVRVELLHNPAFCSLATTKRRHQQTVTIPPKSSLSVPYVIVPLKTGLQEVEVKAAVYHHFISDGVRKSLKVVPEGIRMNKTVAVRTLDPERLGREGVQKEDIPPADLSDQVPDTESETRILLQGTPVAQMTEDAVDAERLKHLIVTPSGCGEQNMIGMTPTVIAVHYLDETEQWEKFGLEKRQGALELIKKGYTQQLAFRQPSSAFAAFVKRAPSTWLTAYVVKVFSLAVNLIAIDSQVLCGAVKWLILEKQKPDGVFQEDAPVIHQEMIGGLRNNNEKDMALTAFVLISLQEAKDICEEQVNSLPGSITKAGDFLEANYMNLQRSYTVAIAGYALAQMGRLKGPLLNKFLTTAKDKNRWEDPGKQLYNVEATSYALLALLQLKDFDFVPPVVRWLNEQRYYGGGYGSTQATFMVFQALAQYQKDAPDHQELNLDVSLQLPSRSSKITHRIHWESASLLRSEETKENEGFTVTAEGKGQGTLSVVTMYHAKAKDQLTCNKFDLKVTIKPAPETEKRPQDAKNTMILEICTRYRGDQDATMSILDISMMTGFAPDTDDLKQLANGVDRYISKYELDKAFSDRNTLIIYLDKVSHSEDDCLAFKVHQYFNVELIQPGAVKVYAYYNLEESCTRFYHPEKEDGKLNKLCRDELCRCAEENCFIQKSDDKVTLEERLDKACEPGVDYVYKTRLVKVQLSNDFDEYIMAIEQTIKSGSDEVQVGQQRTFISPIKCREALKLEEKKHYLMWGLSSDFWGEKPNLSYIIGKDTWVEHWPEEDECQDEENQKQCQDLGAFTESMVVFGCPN
Protocol: as §1, §2

[4] = target: T1, Complement C3; test: EMSA; retarded band; 2.5 mM MgCl2 gel, 4 C; conditions: tags: Calbiochem; label: 32P-CTP uniform; hairpin with apical loop and internal loop
[5] = target: T2, Complement iC3b; test: EMSA; retarded band; conditions: tags: Calbiochem; label: 32P-CTP uniform; hairpin with apical loop and internal loop
[6] = target: T3, Complement C3b; test: EMSA; retarded band; conditions: tags: Quidel; label: 32P-CTP uniform; hairpin with apical loop and internal loop
[7] = target: T2, Complement iC3b; test: filter; 20 mM Tris-HCl pH 7.6, 150 mM NaCl, 10 mM MgCl2; minimized version may have been used; conditions: tags: Calbiochem; label: 32P-CTP uniform
Protocol: as §1, §2

[8] = target: T3, Complement C3b; test: as above; conditions: tags: Quidel; label: 32P-CTP uniform
Protocol: as §1, §2

[9] = target: T1, Complement C3; test: as above; conditions: tags: Calbiochem; label: 32P-CTP uniform
Protocol: as §1, §2

T1 sequence (P01024 23-667, chain 1 of 2): as the sequence (P01024 23-667, chain 1 of 3) above
T1 sequence (P01024 672-1663, chain 2 of 2): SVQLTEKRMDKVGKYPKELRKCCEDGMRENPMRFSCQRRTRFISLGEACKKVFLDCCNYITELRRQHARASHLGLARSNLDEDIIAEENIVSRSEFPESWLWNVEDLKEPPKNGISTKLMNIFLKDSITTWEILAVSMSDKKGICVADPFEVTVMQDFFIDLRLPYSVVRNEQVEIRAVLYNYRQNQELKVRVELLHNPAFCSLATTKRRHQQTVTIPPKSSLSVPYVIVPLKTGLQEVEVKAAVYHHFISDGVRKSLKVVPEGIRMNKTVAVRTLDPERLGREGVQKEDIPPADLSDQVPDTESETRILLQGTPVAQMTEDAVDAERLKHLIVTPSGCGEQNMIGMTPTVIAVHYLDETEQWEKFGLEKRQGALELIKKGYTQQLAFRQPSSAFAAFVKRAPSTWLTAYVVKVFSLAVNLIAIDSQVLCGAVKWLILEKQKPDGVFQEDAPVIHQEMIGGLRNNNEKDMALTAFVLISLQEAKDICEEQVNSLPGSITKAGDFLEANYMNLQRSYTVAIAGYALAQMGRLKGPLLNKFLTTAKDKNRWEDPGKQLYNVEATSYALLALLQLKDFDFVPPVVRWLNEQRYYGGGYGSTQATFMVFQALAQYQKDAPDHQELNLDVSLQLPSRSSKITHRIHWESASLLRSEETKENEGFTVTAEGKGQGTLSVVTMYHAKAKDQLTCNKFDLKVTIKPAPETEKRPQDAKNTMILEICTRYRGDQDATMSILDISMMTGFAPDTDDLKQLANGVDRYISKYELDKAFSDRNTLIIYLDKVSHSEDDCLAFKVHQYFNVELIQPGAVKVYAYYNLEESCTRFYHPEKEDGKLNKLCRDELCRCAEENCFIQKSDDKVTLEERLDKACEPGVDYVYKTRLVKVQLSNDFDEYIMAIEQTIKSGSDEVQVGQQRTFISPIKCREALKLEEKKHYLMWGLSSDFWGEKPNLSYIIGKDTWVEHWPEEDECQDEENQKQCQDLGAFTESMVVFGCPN

B1: AptC3-2 (ssRNA)
RNA: GGGAGAAUUCAACUGCCAUCUAGGCAAAUCCGCGAGCGCCGGUACCGGUGGCGCAUGCCCACACAGCACUAAACGAGUACUACAAGCUUCUGGACUCGGU
Kd [1]: 30 nM
binding result [2]: no binding
Kd [3]: 30 nM

GGGCUAGAAGAAUAUGACGGAUUGACCGUAUCAGGGUAGCCG (ssRNA) [MiniAptC3-1]
binding result [4]: binds
binding result [5]: binds
binding result [6]: binds

B2: AptC3-1 (ssRNA)
RNA: GGGAGAAUUCAACUGCCAUCUAGGCUAGAAGAAUAUGACGGAUUGACCGUAUCAGGGUAGCCGAAGGGAGACAGAAGUACUACAAGCUUCUGGACUCGGU
Kd [7]: ~20 nM
Kd [8]: ~20 nM
Kd [9]: ~20 nM
